# Measurements taken from the DeepSol protein solubility set.
# Experiment: soluble on expression in E. coli; label from the status in PepcDB or PDB records
row,Sequence,soluble on expression in E. coli
1,MCARIQQLPVFFIFILYGSCATTKRNIYVLAINKLMEQQIRKYESFNDLPADCKKLFDSGEKDSFDLSRDWFLLLETTVIRQTKEICIFTLEIEGVTQGIWPTLLQKKGKLSLRQISSFTCFYSSLYQPLISSSLTVDKLADCLRWILSDTRTDVLRFDIMDPSQSSFNLHEQALKKIGFKTDRFFCWGNWYLPVNNQPFSVYLQNLSSRVRNTLERRKKKFLAGGHGKLEILTTHDKLPIAIQAWEKIYNASWKIPEPYPEFMPSLISLCAAKGWLRLGIAYYDEEPIAAQLWIVNQGRAAIYKLAYDEKFAHLSPGTILTAHLMQHAIDVDKVHEVDYLTGDDAYKKDWMSHRRERLGLVAYNLRSFWGLIGISKHIAGKIRKKILKSLK,not soluble
2,MGSDKIHHHHHHLSGCVSLPPPAPIVHQPMSARAALPAPPPGNGAVYQDANQYHSLFIDRRARQIGDTLVILLTERTNASKRSNSSANKNGDVSFGIPPIVFGVPITKKIDLGASSSNDFAGKGEAASANNFSGTITVTVVDVLPNSYLVVSGEKQLAMTQGSEYIRFSGVVRPETVISNTVSSIQVADARIEYKANGYIDEAQTMGWLSRFFLTVAPF,not soluble
3,SMQPIVIHSSGKNYGFTIRAIRVYVGDSDIYTVHHIVWNVEEGSPACQAGLKAGDLITHINGEPVHGLVHTEVIELLLKSGNKVSITTTPFENTETSV,soluble
4,AASSAQCDFGGPFQAYKSVNGPGNGGYYLRKTTKPGTPECAYVLVPQNTLSEGQSTSFTYGKLQNGQMIQLTATVTVNGDKIEVTGAGQDLSGTTTVLFSDYRSCDVMRGPDGNYELWVHSSAINLQSYGCCDTKFAQVAGGRPIHHTWQTYCPPLP,soluble
5,MIELHQKRLSAPKTYKIPRKVSKWVVKPSPGPHNKEAIPLLVLVRDFLELADTGREARRIISAGEILVDGVVRKDYKFPVGLFDVVTIPKLEKSYRILFDEKGRYIPKEVEDADLKLYKITNKTLVRGGKVQLNLFDGTNILGSNDYKTKDSILLRIPEKEVVDHLKFEEGALVMITGGTHAGEIGRIKSYKIVRSSAPNLVTVEGEERDITTIEDYVFVVGKKDSDKPVIDLGVLEHHHHHH,soluble
6,MLAVSFIAGVILIGLYGVDSSERYIAVSELLANPQDYSGQNINAMGVVEDRSLHKDPGVTSFDLKDENDENLKIHVNYVGNLPSNLAEGKQVTIRGSMISESTFEANKIVTGCPSKYTELEHHHHHH,not soluble
7,MTVPSIVLNDGNSIPQLGYGVYKVPPADTQRAVEEALEVGYRHIDTAAIYGNEEGVGAAIAASGIARDDLFITTKLWNDRHDGDEPAAAIAESLAKLALDQVDLYLVHWPTPAADNYVHAWEKMIELRAAGLTRSIGVSNHLVPHLERIVAATGVVPAVNQIELHPAYQQREITDWAAAHDVKIESWGPLGQGKYDLFGAEPVTAAAAAHGKTPAQAVLRWHLQKGFVVFPGSVRREHLEENLDVFDFDLTDTEIAAIDAMDPGDGSGRVSGHPDEVD,soluble
8,MTELDQFWPACLARLEAELSSQQFNTWIKPLTAEAGDEGIALFAPNRFIMQFIKDRFLPRIEELAVELVGELPVELRLGAPTARPAAPVAGNSQPKAKEPAKAAASAPAAPSPAKQAAVKAIGGSHESTRLNPSFTFDTLVTGKGNQLARAAAMQIAENPGDQAYNPLFVYGGVGLGKTHLIQAIGNHVFQKNPQAKIRYIHAERYVADIMRAYQHKAFDEFKRYYHSLDLLLIDDIQFFAGKNRTQEEFFYAFNALIEGGKQVIMTCDSYPKQIEGMEERLISRFSWGLTVEIQPPELEMRVAILMKKAEADSIKLEHNVAFFIAQNVRSNVRELEGALKRVVAYARFTSQNITLELVKEALKDILAAGNRQVTVDAIQKTVAEYYKIKLSDMHSKKRSRDIARPRQVAMALAKELTQLSLPNIGDAFGGRDHTTVLHACKTITEMRASDADIAHDYEALLSMLRNLEHHHHHH,not soluble
9,MTQDTQLTFEARDEFNRKSIAEKVITLLRSDITVSPLVIDGSWGLGKTEFCQKLLSLMSTEETHHLIYIDAFKADHADEPLLTVLAKVLEVLPSQEEQQGLIQKAIPALRYGLKTGGKALVAHILRQDTDSIINGFDEEVKQVADKAIDASVESLLKDHVEAESSLQALQQALKSIAEQKPIVLFIDELDRCRPNFSVLMLETIKHTFDVEGVQFVLITNTNQLKASINHCYGPTIDAQRYLDKFIRFSFTLPHTTNENRHDVTMASVTHYKNLVAKSERLQGLSLDRDSDFWLVAQVINTNNISLREVETLVRHIEIYQALFDDQPLSNHTQWAYRLMALLGVLLISFKPNLAKSALINNLDAKDLGNFLGVHSLPKLENNQHPTHCDTLVFMLASECKYNSDFYVPDNPQDKERWEGEANEYFRGRYNLTRNGRMSLVTGAIKGLGLSVNLEHHHHHH,not soluble
10,MSLTFELYSGATFFRSRSAATKKVRDMQKERLKYVQEVYKVLATYVNFPKVCLPELIEKSIYEITEEEIVKKAEELRKIWGLDLISPVPNLIQLAEQNGVIISEANMSNPTLDAVSRWMIGRPFIMLTDNHESAVRRRFNVAHELGHILLHNGVESIHEYSQTELKNIIEYQANLFAAHFLLPSAAFSDSLLSISLEYYIDLKKYWKVSLQSMIQKIYTLALINDDQRLYLNKRIAKNKWKTKEPYDEQLTIEQPEVFQKVYHMILEHQVIPASQLNQAFKLPKEEIEKILGTAIQTEQDKTEIVLELLRSNKEGHHHHHH,soluble
11,MGSDKIHHHHHHMSDIELLETLAGTDQPRVMATIIHVEGSSYRKEGAMMLFQEDGTQVGLLSGGCLETDLTIKAQKVWQEQLPRTVVYDLSSEDDLSWGQGSGCNGTISVLLEPVDLKLRQHLKRVYDYLCAGKSVFHVKKLSTSGAVLEYAFILDESVYFGEWHSGHPVEWIRKIDENEEPLMFTHIYSPKERLIIFGAGPDVPPLVTFASNVGFYTVVTDWRPNQCEKHFFPDADEIIVDFPADFLRKFLIRPDDFVLIMTHHFQKDQEILHFLLEKELRYIGILGSKERTRRLLQNRKPPDHLYSPVGLSIDAQGPEEIAISIVAQLIQLIRSRKQASSPFSYLFQPESCKH,not soluble
12,MGSDKIHHHHHHMSFGVNRDESSAFCQRAFEAENWRLAASAGLAPTLVAQSIDGRCYLSPLLEDGGWQQRYQEVPLSQITCDAAFFTSPGQTHAGSDREPDGLTHTTRLLLDLLLGLQALPVPANVKGFTTQWQDYETALDASQSHWARNPRWQEAYQALAAEFTEVEAAMARLDAMGLSCQYSHRDLTPHNLLCHQGKLFCIDFEYACASHPLWDLAAVLASHNLPGRERRDLMDAYLYAHPQLESSMSSRVVDAVALHWYFGAIWALLMAGQSGDDDYLCWFHRYLQLAKS,not soluble
13,MKRSSVFSFLVAFLLVAGCSHKMDNKTVAGDVSAKTVQTAPVTTEPAPEKEEPKQEPAPVVEEKPAVESGTIIASIYFDFDKYEIKESDQETLDEIVQKAKENHMQVLLEGNTDEFGSSEYNQALGVKRTLSVKNALVIKGVEKDMIKTISFGETKPKCAQKTRECYKENRRVDVKLMK,not soluble
14,MSLNWEHLLSLKRQGDTAKRLRIEQDDTRLGFEVDYDRIIFSAPFRSLQDKTQVIPLSKTDFVHTRLTHSLEVSVVGRSLGRMVGKKLLEKYPHLEQVYGYKFNDFGAIVAAAALAHDIGNPPFGHSGEKAIGEFFKNGYGKRYKDSLTAKEYQDLIKFEGNANGFKVLSQSKPGAQGGLRLSYATLGAFMKYPKESLPHKPSDHIADKKYGFFQSERALFEDVAQELGLLKRSTTDDVSWSRHPLAYLVEAADDICYTIIDFEDGINLGLIPEEYALEYMVKLVGQTIDRNKYNALQETSDRVSYLRALAIGTLINESVDTFMKYEEEILAGTFDQSLIDKSNYQAQITDIINLSIERIYNSREVIEKEIAGYEILSTLLEARCRALDNNDTHYNQLIQQLLAPNDHSEKSLYENLIQICAEVSTMTDGKALRNYKKIKGLDEGHHHHHH,soluble
15,MGSDKIHHHHHHMNNTPTPPKVLLLLTSLHGGGAERVAVHLLNRLQGRFDMRMGLLRASGPYLDQADRSRLIVAPEGETHFNFDGPNSANYRPGKLVGSAVRAPLAFRRMIRETQPDVVLSFLKGTNLLVWLALMNMGRARPRWIAREGNNVLAVIREEAPNGAVARASRDLTAKAYRRADAVLANSTDMAAGLITDLDLDPAKMRMINNPIDIDGIREAAGESLPGAPNRPFILTAGRLEYQKAHEVLLRAFARSEAWRTHALVILGKGSRLGELHRLAAQLGIGEYVRFIGFVPNPYAWMARADLFVLPSRWEGFPTVAAEAMACGTPLLLTDCRFGARDIVEPGVTGELVPVNDEAALATEIAALLASPERRSALARAGREKVERFRLERMLEAYAALFDEQFAARRR,not soluble
